Reference: patent US20260242492A1 (JOINT STOCK COMPANY BIOCAD, published 2026)

Tests used:
[1] = biological target: T1, biotinylated peptide [NH2]CEPANPSEKNSPSTQYCYSIQS[CH2CH2]biotin comprising a fragment of the human CD20 … (human, [NH2] at the N-terminus; [CH2CH2]biotin at the C-terminus (so in the source)); assay: BLI (Octet RED 384), biotinylated CD20 peptide on SAX sensors, antibody-like molecule as analyte, 1:1 model, global fit
T1 construct: Immobilized on streptavidin (SAX) sensors; also called CD20 peptide
T1 peptide: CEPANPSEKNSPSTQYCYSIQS
Method: (§1) Experiments were carried out using a kinetic buffer solution (hereinafter referred to as 1×KB); volume fraction of added Tween 20 was 0.1%; mass fraction of added BSA (bovine serum albumin) was 0.1%; pH 7.4. Before the measurement, the ProA sensors were regenerated with a solution of 50 mM glycine and hydrochloric acid, pH 1.8 (5 seconds in the regenerating solution, 5 seconds in 1×KB, three repetitions).
In the case of biotinylated […], the peptide at a concentration of 2.5 μg/ml was immobilized on the surface of SAX sensors (High Precision Streptavidin (SAX) biosensors, ForteBio) for 300 seconds. The baseline was recorded in a 1×KB solution for 120 seconds. Sensors loaded with peptide were then immersed into wells containing the solution of antibody-like molecule (analyte) in 1×KB for 300 seconds. Measurements were performed for solutions with analyte (antibody-like molecule in case of CD20 peptide) at concentrations […] and 75 µg/ml. Complex dissociation was recorded in 1×KB for 60 seconds.
(§2) To obtain numerical values of kinetic constants (kon is the on/association rate constant, kdis is the dissociation rate constant, KD is the equilibrium dissociation constant or affinity constant), the resulting sensograms were processed according to the 1:1 interaction model using Global Fit (selection of one set of kon, kdis, KD constants to analyze several sensograms of different concentrations) of the ForteBio Octet Data Analysis 9.0 software.

[2] = biological target: T2, extracellular domain of the human PD-1 protein (hPD1ex-H6F) (human, UniProt Q15116 21-170); assay: BLI (Octet RED 384), antibody-like molecule on ProA sensors, hPD1ex-H6F analyte 485.4 nM, 1:1 model
T2 construct: Made in CHO cells, molecular weight 20.6 kDa as printed; also called hPDlex-H6F
T2 sequence (Q15116 21-170 limits assumed, form in doubt): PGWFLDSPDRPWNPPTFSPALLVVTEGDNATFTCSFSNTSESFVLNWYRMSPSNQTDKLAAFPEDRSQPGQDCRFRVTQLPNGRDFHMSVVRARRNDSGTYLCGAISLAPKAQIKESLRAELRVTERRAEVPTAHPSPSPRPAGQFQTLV
Method: as §1
(§3) In the case of the hPDlex-H6F and hCSF1R_His antigens, the Protein A (ProA) biosensors (ForteBio) were immersed in a solution with antibody-like molecules at a concentration of 10 µg/ml for 300 seconds to immobilize same. The baseline was recorded in 1×KB for 120 seconds. Sensors loaded with the antibody-like molecule were then immersed into wells containing a solution of the target antigen (analyte) in a kinetic buffer for 300 seconds. Measurements were performed for solutions with hPDlex-H6F analyte at concentrations of 10 µg/ml (485.4 nM), for solutions with hCSF1R_His analyte at concentrations of 10 µg/ml (174.2 nM). Complex dissociation in 1×KB was then detected for 600 seconds.
as §2

[3] = biological target: T3, extracellular domain of the human CSF1R protein (hCSF1R_His) (human, UniProt P07333 20-512); assay: BLI (Octet RED 384), antibody-like molecule on ProA sensors, hCSF1R_His analyte 174.2 nM, 1:1 model
T3 construct: range 20-512; Made in CHO cells, molecular weight 57.4 kDa as printed; not shown: C-terminal His-tag and FLAG-tag
T3 sequence (P07333 20-512 limits assumed): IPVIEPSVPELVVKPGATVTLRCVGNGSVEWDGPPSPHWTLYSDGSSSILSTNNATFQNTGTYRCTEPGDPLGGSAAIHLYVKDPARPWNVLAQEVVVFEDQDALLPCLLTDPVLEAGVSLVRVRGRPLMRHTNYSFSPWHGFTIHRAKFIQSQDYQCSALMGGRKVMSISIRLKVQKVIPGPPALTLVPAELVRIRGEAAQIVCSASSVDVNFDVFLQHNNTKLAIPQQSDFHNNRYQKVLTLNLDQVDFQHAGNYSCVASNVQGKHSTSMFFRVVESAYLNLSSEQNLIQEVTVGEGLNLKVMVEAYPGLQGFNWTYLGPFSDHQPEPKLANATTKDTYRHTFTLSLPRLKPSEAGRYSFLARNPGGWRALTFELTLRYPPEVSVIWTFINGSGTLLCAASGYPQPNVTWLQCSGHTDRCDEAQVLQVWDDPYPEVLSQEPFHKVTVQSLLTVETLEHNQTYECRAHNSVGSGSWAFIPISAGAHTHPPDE
Method: as §1, §3, §2

B1: antibody-like molecule 08-002 (binds CD20 and PD1) (bispecific antibody, human IgG1, kappa, L234A L235A)
heavy 1: EVQLVESGGGLVQPGGSLRLSCAASGYTFTSYNMHWVRQAPGKGLEWVGAIYPGNGDTSYNQKFKGRFTISVDKSKNTLYLQMNSLRAEDTAVYYCARVVYYSNSYWYFDVWGQGTLVTVSSASTKGPSVFPLAPSSKSTSGGTAALGCLVKDYFPEPVTVSWNSGALTSGVHTFPAVLQSSGLYSLSSVVTVPSSSLGTQTYICNVNHKPSNTKVDKRVEPKSCDKTHTCPPCPAPEAAGGPSVFLFPPKPKDTLYITREPEVTCVVVDVSHEDPEVKFNWYVDGVEVHNAKTKPREEQYNSTYRVVSVLTVLHQDWLNGKEYKCKVSNKALPAPIEKTISKAKGQPREPQVCTLPPSRDELTKNQVSLSCAVKGFYPSDIAVEWESNGQPENNYKTTPPVLDSDGSFFLVSKLTVDKSRWQQGNVFSCSVMHEALHNHYTQKSLSLSPGK
light 1: DIQMTQSPSSLSASVGDRVTITCRASSSVSYMHWYQQKPGKAPKPLIYAPSNLASGVPSRFSGSGSGTDFTLTISSLQPEDFATYYCQQWSFNPPTFGQGTKVEIKRTVAAPSVFIFPPSDEQLKSGTASVVCLLNNFYPREAKVQWKVDNALQSGNSQESVTEQDSKDSTYSLSSTLTLSKADYEKHKVYACEVTHQGLSSPVTKSFNRGEC
heavy 2: not shown
light 2: QPVLTQPLSVSVALGQTARITCGGNNIGSKNVHWYQQKPGQAPVLVIYRDSNRPSGIPERFSGSNSGNTATLTISRAQAGDEADYYCQVWDSSTAVFGTGTKLTVLQQRQVKPEAWLSKGPSPGPGRLQLVCHVSGFYPKPVWVMWMRGEQEQQGTQLGDILPNADWTWYLRATLDVADGEAAGLSCRVKHSSLEGQDIILYWRGSC
notes: Four distinct chains: Ocrelizumab Fab arm (hole) and Prolgolimab Fab-like arm with b2m/CD1b alpha3 dimerization unit (knob)
[1]
  Kd: 0.845 µM
  koff: 0.0986 s⁻¹
  kon: 117000 M⁻¹ s⁻¹
[2]
  Kd: 0.0169 µM
  koff: 0.000658 s⁻¹
  kon: 39000 M⁻¹ s⁻¹

B2: antibody-like molecule 08-005 (binds CD20 and CSF1R) (bispecific antibody, human IgG1, kappa, L234A L235A)
heavy 1: EVQLVESGGGLVQPGGSLRLSCAASGYTFTSYNMHWVRQAPGKGLEWVGAIYPGNGDTSYNQKFKGRFTISVDKSKNTLYLQMNSLRAEDTAVYYCARVVYYSNSYWYFDVWGQGTLVTVSSASTKGPSVFPLAPSSKSTSGGTAALGCLVKDYFPEPVTVSWNSGALTSGVHTFPAVLQSSGLYSLSSVVTVPSSSLGTQTYICNVNHKPSNTKVDKRVEPKSCDKTHTCPPCPAPEAAGGPSVFLFPPKPKDTLYITREPEVTCVVVDVSHEDPEVKFNWYVDGVEVHNAKTKPREEQYNSTYRVVSVLTVLHQDWLNGKEYKCKVSNKALPAPIEKTISKAKGQPREPQVCTLPPSRDELTKNQVSLSCAVKGFYPSDIAVEWESNGQPENNYKTTPPVLDSDGSFFLVSKLTVDKSRWQQGNVFSCSVMHEALHNHYTQKSLSLSPGK
light 1: DIQMTQSPSSLSASVGDRVTITCRASSSVSYMHWYQQKPGKAPKPLIYAPSNLASGVPSRFSGSGSGTDFTLTISSLQPEDFATYYCQQWSFNPPTFGQGTKVEIKRTVAAPSVFIFPPSDEQLKSGTASVVCLLNNFYPREAKVQWKVDNALQSGNSQESVTEQDSKDSTYSLSSTLTLSKADYEKHKVYACEVTHQGLSSPVTKSFNRGEC
heavy 2: not shown
light 2: QAGLTQPPSVSVAPGQTARITCGGNNIGSKSVHWYQQKPGQAPVLVVYGDSDRPSGIPERFSGSNSGNTATLTISRVEAGDEADYYCQVWDISSDHVVFGGGTQLTVLQRQVKPEAWLSKGPSPGPGRLQLVCHVSGFYPKPVWVMWMRGEQEQQGTQLGDILPNADWTWYLRATLDVADGEAAGLSCRVKHSSLEGQDIILYWRGSC
notes: Four distinct chains: Ocrelizumab Fab arm (hole) and anti-CSF1R Fab-like arm with b2m/CD1b alpha3 dimerization unit (knob)
[3]
  Kd: 0.0014 µM
  koff: 0.000253 s⁻¹
  kon: 181000 M⁻¹ s⁻¹
[1]
  Kd: 0.483 µM
  koff: 0.0581 s⁻¹
  kon: 120000 M⁻¹ s⁻¹

B3: antibody-like molecule 08-004 (binds CSF1R and PD1) (bispecific antibody, human IgG1, kappa, L234A L235A)
heavy 1: QVQLVESGGGLVRPGGSLRLSCAASEFTFDDYAMSWVRQAPGKGLEWVSAISWNGGSTNYADSVKGRFTISRDNAKNSLYLQMNSLRAEDTALYYCASTVEVAHRRLYKYLEVWGQGTLVTVSSASTKGPSVFPLAPSSKSTSGGTAALGCLVKDYFPEPVTVSWNSGALTSGVHTFPAVLQSSGLYSLSSVVTVPSSSLGTQTYICNVNHKPSNTKVDKRVEPKSCDKTHTCPPCPAPEAAGGPSVFLFPPKPKDTLYITREPEVTCVVVDVSHEDPEVKFNWYVDGVEVHNAKTKPREEQYNSTYRVVSVLTVLHQDWLNGKEYKCKVSNKALPAPIEKTISKAKGQPREPQVCTLPPSRDELTKNQVSLSCAVKGFYPSDIAVEWESNGQPENNYKTTPPVLDSDGSFFLVSKLTVDKSRWQQGNVFSCSVMHEALHNHYTQKSLSLSPGK
light 1: QAGLTQPPSVSVAPGQTARITCGGNNIGSKSVHWYQQKPGQAPVLVVYGDSDRPSGIPERFSGSNSGNTATLTISRVEAGDEADYYCQVWDISSDHVVFGGGTQLTVLRTVAAPSVFIFPPSDEQLKSGTASVVCLLNNFYPREAKVQWKVDNALQSGNSQESVTEQDSKDSTYSLSSTLTLSKADYEKHKVYACEVTHQGLSSPVTKSFNRGEC
heavy 2: not shown
light 2: QPVLTQPLSVSVALGQTARITCGGNNIGSKNVHWYQQKPGQAPVLVIYRDSNRPSGIPERFSGSNSGNTATLTISRAQAGDEADYYCQVWDSSTAVFGTGTKLTVLQQRQVKPEAWLSKGPSPGPGRLQLVCHVSGFYPKPVWVMWMRGEQEQQGTQLGDILPNADWTWYLRATLDVADGEAAGLSCRVKHSSLEGQDIILYWRGSC
notes: Four distinct chains: anti-CSF1R Fab arm (hole) and Prolgolimab Fab-like arm with b2m/CD1b alpha3 dimerization unit (knob)
[3]
  Kd: 0.00223 µM
  koff: 0.000443 s⁻¹
  kon: 199000 M⁻¹ s⁻¹
[2]
  Kd: 0.0137 µM
  koff: 0.000568 s⁻¹
  kon: 41400 M⁻¹ s⁻¹

B4: antibody-like molecule 08-001 (binds PD1 and CD20) (bispecific antibody, human IgG1, kappa, L234A L235A)
heavy 1: QVQLVQSGGGLVQPGGSLRLSCAASGFTFSSYWMYWVRQVPGKGLEWVSAIDTGGGRTYYADSVKGRFAISRVNAKNTMYLQMNSLRAEDTAVYYCARDEGGGTGWGVLKDWPYGLDAWGQGTLVTVSSASTKGPSVFPLAPSSKSTSGGTAALGCLVKDYFPEPVTVSWNSGALTSGVHTFPAVLQSSGLYSLSSVVTVPSSSLGTQTYICNVNHKPSNTKVDKRVEPKSCDKTHTCPPCPAPEAAGGPSVFLFPPKPKDTLYITREPEVTCVVVDVSHEDPEVKFNWYVDGVEVHNAKTKPREEQYNSTYRVVSVLTVLHQDWLNGKEYKCKVSNKALPAPIEKTISKAKGQPREPQVCTLPPSRDELTKNQVSLSCAVKGFYPSDIAVEWESNGQPENNYKTTPPVLDSDGSFFLVSKLTVDKSRWQQGNVFSCSVMHEALHNHYTQKSLSLSPGK
light 1: QPVLTQPLSVSVALGQTARITCGGNNIGSKNVHWYQQKPGQAPVLVIYRDSNRPSGIPERFSGSNSGNTATLTISRAQAGDEADYYCQVWDSSTAVFGTGTKLTVLQRTVAAPSVFIFPPSDEQLKSGTASVVCLLNNFYPREAKVQWKVDNALQSGNSQESVTEQDSKDSTYSLSSTLTLSKADYEKHKVYACEVTHQGLSSPVTKSFNRGEC
heavy 2: not shown
light 2: DIQMTQSPSSLSASVGDRVTITCRASSSVSYMHWYQQKPGKAPKPLIYAPSNLASGVPSRFSGSGSGTDFTLTISSLQPEDFATYYCQQWSFNPPTFGQGTKVEIKQRQVKPEAWLSKGPSPGPGRLQLVCHVSGFYPKPVWVMWMRGEQEQQGTQLGDILPNADWTWYLRATLDVADGEAAGLSCRVKHSSLEGQDIILYWRGSC
[1]
  Kd: 0.848 µM
  koff: 0.139 s⁻¹
  kon: 164000 M⁻¹ s⁻¹
[2]
  Kd: 0.0159 µM
  koff: 0.000601 s⁻¹
  kon: 37800 M⁻¹ s⁻¹

B5: antibody-like molecule 08-003 (binds PD1 and CSF1R) (bispecific antibody, human IgG1, kappa, L234A L235A)
heavy 1: QVQLVQSGGGLVQPGGSLRLSCAASGFTFSSYWMYWVRQVPGKGLEWVSAIDTGGGRTYYADSVKGRFAISRVNAKNTMYLQMNSLRAEDTAVYYCARDEGGGTGWGVLKDWPYGLDAWGQGTLVTVSSASTKGPSVFPLAPSSKSTSGGTAALGCLVKDYFPEPVTVSWNSGALTSGVHTFPAVLQSSGLYSLSSVVTVPSSSLGTQTYICNVNHKPSNTKVDKRVEPKSCDKTHTCPPCPAPEAAGGPSVFLFPPKPKDTLYITREPEVTCVVVDVSHEDPEVKFNWYVDGVEVHNAKTKPREEQYNSTYRVVSVLTVLHQDWLNGKEYKCKVSNKALPAPIEKTISKAKGQPREPQVCTLPPSRDELTKNQVSLSCAVKGFYPSDIAVEWESNGQPENNYKTTPPVLDSDGSFFLVSKLTVDKSRWQQGNVFSCSVMHEALHNHYTQKSLSLSPGK
light 1: QPVLTQPLSVSVALGQTARITCGGNNIGSKNVHWYQQKPGQAPVLVIYRDSNRPSGIPERFSGSNSGNTATLTISRAQAGDEADYYCQVWDSSTAVFGTGTKLTVLQRTVAAPSVFIFPPSDEQLKSGTASVVCLLNNFYPREAKVQWKVDNALQSGNSQESVTEQDSKDSTYSLSSTLTLSKADYEKHKVYACEVTHQGLSSPVTKSFNRGEC
heavy 2: not shown
light 2: QAGLTQPPSVSVAPGQTARITCGGNNIGSKSVHWYQQKPGQAPVLVVYGDSDRPSGIPERFSGSNSGNTATLTISRVEAGDEADYYCQVWDISSDHVVFGGGTQLTVLQRQVKPEAWLSKGPSPGPGRLQLVCHVSGFYPKPVWVMWMRGEQEQQGTQLGDILPNADWTWYLRATLDVADGEAAGLSCRVKHSSLEGQDIILYWRGSC
notes: Four distinct chains: Prolgolimab Fab arm (hole) and anti-CSF1R Fab-like arm with b2m/CD1b alpha3 dimerization unit (knob)
[3]
  Kd: 0.00144 µM
  koff: 0.000238 s⁻¹
  kon: 165000 M⁻¹ s⁻¹
[2]
  Kd: 0.0124 µM
  koff: 0.000487 s⁻¹
  kon: 39200 M⁻¹ s⁻¹
